Literature values as cited in PMC2174977.

Target: chemoreceptor (Tar) (Escherichia coli) (UniProt P07017)
Sequence of UniProt P07017 (P07017 whole entry): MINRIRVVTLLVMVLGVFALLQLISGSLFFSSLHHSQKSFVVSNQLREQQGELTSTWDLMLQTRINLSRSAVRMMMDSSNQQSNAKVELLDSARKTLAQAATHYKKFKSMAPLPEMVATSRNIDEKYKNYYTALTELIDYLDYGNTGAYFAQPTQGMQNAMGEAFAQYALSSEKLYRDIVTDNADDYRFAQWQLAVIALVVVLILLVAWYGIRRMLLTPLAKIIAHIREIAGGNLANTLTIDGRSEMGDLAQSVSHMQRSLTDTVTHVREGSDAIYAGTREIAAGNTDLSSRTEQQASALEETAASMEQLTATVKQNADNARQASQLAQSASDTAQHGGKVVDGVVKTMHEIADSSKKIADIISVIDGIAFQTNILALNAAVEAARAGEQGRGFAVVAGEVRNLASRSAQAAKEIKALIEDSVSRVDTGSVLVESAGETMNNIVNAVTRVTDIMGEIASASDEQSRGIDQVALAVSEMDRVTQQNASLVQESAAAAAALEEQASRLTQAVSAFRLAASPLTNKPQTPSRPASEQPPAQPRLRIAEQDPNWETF

Kd: 11 µM
Substance: CheR (from UniProt P07364)
